Biological target: murine anti-HMW-MAA monoclonal antibody 763.74
Experiment: ELISA on plates coated with MAb 763.74, culture supernatant, detected with alkaline phosphatase-conjugated anti-human γ

A405: 0.78 A405
B1: chimeric antiidiotypic monoclonal antibody MK2-CHγ1 (antibody, V domains shown)
VH: LQESGGGLVQPGGSRKLSCAASGFTFSSFGMHWVRQAPEKGLEWVAYISSDSSNIYYADTVKGRFTISRDNPKNTLFLQMTSLRSEDTAMYYCARSNYVGYHVRWYFDVWGQGTTVT
VL: QLTQSPASLAVSLGQRVTISCRASESVEYYGSSLMQWYQQKPGQPPKLLIYAASNVESGVPARFSGSGSGTDFSLNIHPVEEDDIAMYFCQQSRKIPYTFGGGTKLEI
